Results reported in patent US20130280763A1 (IMBA INSTITUT FUR MOLEKULARE BIOTECHNOLOGIE, published 2013).

B2: FLAG-tagged HSPC117 (enzyme, human, UniProt Q9Y3I0 1-505, looked up)
chain: MSRSYNDELQFLEKINKNCWRIKKGFVPNMQVEGVFYVNDALEKLMFEELRNACRGGGVGGFLPAMKQIGNVAALPGIVHRSIGLPDVHSGYGFAIGNMAAFDMNDPEAVVSPGGVGFDINCGVRLLRTNLDESDVQPVKEQLAQAMFDHIPVGVGSKGVIPMNAKDLEEALEMGVDWSLREGYAWAEDKEHCEEYGRMLQADPNKVSARAKKRGLPQLGTLGAGNHYAEIQVVDEIFNEYAAKKMGIDHKGQVCVMIHSGSRGLGHQVATDALVAMEKAMKRDKIIVNDRQLACARIASPEGQDYLKGMAAAGNYAWVNRSSMTFLTRQAFAKVFNTTPDDLDLHVIYDVSHNIAKVEQHVVDGKERTLLVHRKGSTRAFPPHHPLIAVDYQLTGQPVLIGGTMGTCSYVLTGTEQGMTETFGTTCHGAGRALSRAKSRRNLDFQDVLDKLADMGIAIRVASPKLVMEEAPESYKNVTDVVNTCHDAGISKKAIKLRPIAVIKG
notes: also called FLAG-HSPC117; FLAG-RTCB; not shown: FLAG tag
B4: CGI-99 (other, human, UniProt Q9Y224 1-244, looked up)
chain: MFRRKLTALDYHNPAGFNCKDETEFRNFIVWLEDQKIRHYKIEDRGNLRNIHSSDWPKFFEKYLRDVNCPFKIQDRQEAIDWLLGLAVRLEYGDNAEKYKDLVPDNSKTADNATKNAEPLINLDVNNPDFKAGVMALANLLQIQRHDDYLVMLKAIRILVQERLTQDAVAKANQTKEGLPVALDKHILGFDTGDAVLNEAAQILRLLHIEELRELQTKINEAIVAVQAIIADPKTDHRLGKVGR
notes: Endogenous protein that co-purifies from cell extract

What was measured:
[1] = biological target: T1, HSPC117, Q9Y3I0
T1 chain: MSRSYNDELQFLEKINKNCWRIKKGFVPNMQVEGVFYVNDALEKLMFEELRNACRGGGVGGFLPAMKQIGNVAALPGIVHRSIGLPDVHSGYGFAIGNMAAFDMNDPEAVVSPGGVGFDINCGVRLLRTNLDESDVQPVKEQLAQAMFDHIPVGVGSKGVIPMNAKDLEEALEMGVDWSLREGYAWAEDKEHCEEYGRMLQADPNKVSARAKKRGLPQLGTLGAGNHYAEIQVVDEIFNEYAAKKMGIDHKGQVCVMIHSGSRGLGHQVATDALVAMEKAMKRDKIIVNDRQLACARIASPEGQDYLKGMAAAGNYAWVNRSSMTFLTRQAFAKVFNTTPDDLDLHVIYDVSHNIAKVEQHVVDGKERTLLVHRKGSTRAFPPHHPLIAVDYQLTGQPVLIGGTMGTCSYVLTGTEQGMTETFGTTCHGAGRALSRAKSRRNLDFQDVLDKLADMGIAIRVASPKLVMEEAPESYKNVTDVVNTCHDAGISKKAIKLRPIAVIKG

[2] = biological target: T2, DDX1 (human, UniProt Q92499 1-740); assay: FLAG affinity purification, co-purifying proteins on a gel (FIG. 1A)
T2 construct: Endogenous protein that co-purifies from cell extract
T2 sequence (looked up): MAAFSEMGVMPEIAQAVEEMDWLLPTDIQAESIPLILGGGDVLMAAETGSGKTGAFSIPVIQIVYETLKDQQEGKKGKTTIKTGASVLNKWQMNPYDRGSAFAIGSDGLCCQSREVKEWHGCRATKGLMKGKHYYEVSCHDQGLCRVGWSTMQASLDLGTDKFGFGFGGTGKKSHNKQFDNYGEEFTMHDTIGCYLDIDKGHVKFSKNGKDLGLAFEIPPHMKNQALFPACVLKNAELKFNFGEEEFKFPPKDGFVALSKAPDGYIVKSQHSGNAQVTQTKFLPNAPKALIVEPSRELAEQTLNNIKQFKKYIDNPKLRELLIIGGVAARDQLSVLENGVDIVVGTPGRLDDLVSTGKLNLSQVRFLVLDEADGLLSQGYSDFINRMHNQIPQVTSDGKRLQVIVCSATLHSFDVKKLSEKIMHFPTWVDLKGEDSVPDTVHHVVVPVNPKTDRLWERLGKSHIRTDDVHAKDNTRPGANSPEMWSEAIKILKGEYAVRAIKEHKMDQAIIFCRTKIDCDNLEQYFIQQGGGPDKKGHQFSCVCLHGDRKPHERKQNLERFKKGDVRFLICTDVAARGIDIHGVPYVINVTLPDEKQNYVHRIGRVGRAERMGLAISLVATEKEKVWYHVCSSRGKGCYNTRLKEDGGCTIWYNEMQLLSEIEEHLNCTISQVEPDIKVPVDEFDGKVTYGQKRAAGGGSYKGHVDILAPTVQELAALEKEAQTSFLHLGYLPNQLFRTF

[3] = biological target: T3, recombinant Archease D39A
T3 chain: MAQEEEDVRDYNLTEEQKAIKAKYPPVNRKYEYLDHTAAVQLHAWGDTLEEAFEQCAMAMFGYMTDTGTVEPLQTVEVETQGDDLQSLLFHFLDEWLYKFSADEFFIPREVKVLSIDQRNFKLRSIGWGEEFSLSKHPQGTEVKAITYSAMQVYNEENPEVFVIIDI

[4] = biological target: T4, recombinant Archease K144A
T4 chain: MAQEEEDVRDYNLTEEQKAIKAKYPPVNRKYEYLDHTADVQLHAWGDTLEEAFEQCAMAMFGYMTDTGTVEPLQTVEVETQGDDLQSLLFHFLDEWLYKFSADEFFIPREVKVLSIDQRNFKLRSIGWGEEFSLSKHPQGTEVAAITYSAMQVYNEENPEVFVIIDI

[5] = biological target: T5, recombinant wild-type Archease
T5 chain: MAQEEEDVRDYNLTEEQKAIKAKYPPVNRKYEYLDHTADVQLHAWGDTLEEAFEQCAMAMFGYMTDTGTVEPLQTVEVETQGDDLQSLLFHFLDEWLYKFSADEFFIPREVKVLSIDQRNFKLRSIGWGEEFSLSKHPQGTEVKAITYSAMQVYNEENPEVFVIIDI

[6] = biological target: T6, ASW (human, UniProt Q9BVC5 1-232, limits assumed); assay: FLAG affinity purification at 150 mM NaCl, Coomassie stained gel (FIG. 4A)
T6 construct: Endogenous protein that co-purifies from cell extract
T6 sequence (looked up): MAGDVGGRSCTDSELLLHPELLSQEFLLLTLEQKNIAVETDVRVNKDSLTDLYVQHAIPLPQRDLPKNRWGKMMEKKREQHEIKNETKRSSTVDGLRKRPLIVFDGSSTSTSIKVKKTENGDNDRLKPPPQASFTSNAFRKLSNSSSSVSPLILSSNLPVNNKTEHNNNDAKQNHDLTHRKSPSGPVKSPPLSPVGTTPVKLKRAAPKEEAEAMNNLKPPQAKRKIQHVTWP
Protocol: (§1) A) Coomassie Blue stained preparations of FLAG-tagged Archease and HSPC117 affinity purified at 150 mM NaCl. B) RNA ligase activity assay of FLAG-HSPC117 and FLAG-Archease using pre-cleaved tRNA substrates. Extracts of HEK 293 cells were used as a negative control. * Indicates unspecific products.
(§2) Stable cell lines expressing a FLAG-tagged version of Archease and HSPC117 were generated to perform immuno-precipitations. Fluted FLAG-Archease was assayed for tRNA ligation in parallel with FLAG-HSPC117, which contains the entire tRNA ligase complex. […] RNA ligase activity was only detectable in reactions containing affinity-purified RNA ligase complex but not FLAG-tagged Archease (FIG. 4B).

[7] = biological target: B4; assay: as above
Protocol: as §1, §2

[8] = biological target: T2, DDX1; assay: as above
Protocol: as §1, §2

[9] = biological target: B2; assay: FLAG affinity purification, co-purifying proteins on a gel (FIG. 1A)
[10] = biological target: B2; assay: FLAG affinity purification at 150 mM NaCl, Coomassie stained gel (FIG. 4A)
Protocol: as §1, §2

B1: FLAG-DDX1 (protein)
chain: MAAFSEMGVMPEIAQAVEEMDWLLPTDIQAESIPLILGGGDVLMAAETGSGKTGAFSIPVIQIVYETLKDQQEGKKGKTTIKTGASVLNKWQMNPYDRGSAFAIGSDGLCCQSREVKEWHGCRATKGLMKGKHYYEVSCHDQGLCRVGWSTMQASLDLGTDKFGFGFGGTGKKSHNKQFDNYGEEFTMHDTIGCYLDIDKGHVKFSKNGKDLGLAFEIPPHMKNQALFPACVLKNAELKFNFGEEEFKFPPKDGFVALSKAPDGYIVKSQHSGNAQVTQTKFLPNAPKALIVEPSRELAEQTLNNIKQFKKYIDNPKLRELLIIGGVAARDQLSVLENGVDIVVGTPGRLDDLVSTGKLNLSQVRFLVLDEADGLLSQGYSDFINRMHNQIPQVTSDGKRLQVIVCSATLHSFDVKKLSEKIMHFPTWVDLKGEDSVPDTVHHVVVPVNPKTDRLWERLGKSHIRTDDVHAKDNTRPGANSPEMWSEAIKILKGEYAVRAIKEHKMDQAIIFCRTKIDCDNLEQYFIQQGGGPDKKGHQFSCVCLHGDRKPHERKQNLERFKKGDVRFLICTDVAARGIDIHGVPYVINVTLPDEKQNYVHRIGRVGRAERMGLAISLVATEKEKVWYHVCSSRGKGCYNTRLKEDGGCTIWYNEMQLLSEIEEHLNCTISQVEPDIKVPVDEFDGKVTYGQKRAAGGGSYKGHVDILAPTVQELAALEKEAQTSFLHLGYLPNQLFRTF
- Xbp1 ligation assay using FLAG-IPs [1]: ligation activity in FLAG-HSPC117 and FLAG-DDX1 IPs were observed

Binder: B2
- binding result [2]: binds
- ligation of Xbp1 RNA minimal substrates [3]: Addition of recombinant wild-type Archease but not its mutagenized versions strongly stimulated ligation of Xbp1 RNA minimal substrates
- ligation of Xbp1 RNA minimal substrates [4]: Addition of recombinant wild-type Archease but not its mutagenized versions strongly stimulated ligation of Xbp1 RNA minimal substrates
- ligation activity of affinity purified human tRNA ligase complex (pre-cleaved tRNA substrates, linear intron) [5]: addition of recombinant Archease boosts ligation activity to a great extent (including circularization of the intron)
- ligation of Xbp1 RNA minimal substrates [5]: Addition of recombinant wild-type Archease but not its mutagenized versions strongly stimulated ligation of Xbp1 RNA minimal substrates

B3: FLAG-tagged Archease (other)
chain: MAQEEEDVRDYNLTEEQKAIKAKYPPVNRKYEYLDHTADVQLHAWGDTLEEAFEQCAMAMFGYMTDTGTVEPLQTVEVETQGDDLQSLLFHFLDEWLYKFSADEFFIPREVKVLSIDQRNFKLRSIGWGEEFSLSKHPQGTEVKAITYSAMQVYNEENPEVFVIIDI
notes: also called FLAG-Archease; not shown: FLAG tag
- binding result [6]: no binding
- binding result [7]: no binding
- binding result [8]: no binding

Binder: B4
- binding result [9]: binds

B5: Archease (other)
chain: AQEEEDVRDYNLTEEQKAIKAKYPPVNRKYEYLDHTADVQLHAWGDTLEEAFEQCAMAMFGYMTDTGTVEPLQTVEVETQGDDLQSLLFHFLDEWLYKFSADEFFIPREVKVLSIDQRNFKLRSIGWGEEFSLSKHPQGTEVKAITYSAMQVYNEENPEVFVIIDI
notes: Endogenous untagged Archease in the cells from which FLAG-HSPC117 was purified
- binding result [10]: no binding
